Measured values from IntAct's records for PubMed 16354671.

B1: Outer-membrane lipoprotein carrier protein (Escherichia coli (strain K12)), P61316 (parent)
chain: MKKIAITCALLSSLVASSVWADAASDLKSRLDKVSSFHASFTQKVTDGSGAAVQEGQGDLWVKRPNLFNWHMTQPDESILVSDGKTLWFYNPFVEQATATWLKDATGNTPFMLIARNQSSDWQQYNIKQNGDDFVLTPKASNGNLKQFTINVGRDGTIHQFSAVEQDDQRSSYQLKSQQNGAVDAAKFTFTPPQGVTVDDQRK
partner: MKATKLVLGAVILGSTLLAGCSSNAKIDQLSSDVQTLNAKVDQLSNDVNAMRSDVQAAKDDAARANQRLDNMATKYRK

Variants of: B1
Settings: with lpp_ecoli lpp

| Variant | effect of a mutation on the interaction |
| --- | --- |
| MKKIAITCALLSSLVASSVWADAASDLKSRLDKVSSFHASFTQKVTDGSGAAVQEGQGDLWVKRPNLFNWHMTQPDESILVSDGKTLWFYNPFVEQATATWLKDATGNTPFMLGARNQSSDWQQYNIKQNGDDFVLTPKASNGNLKQFTINVGRDGTIHQFSAVEQDDQRSSYQLKSQQNGAVDAAKFTFTPPQGVTVDDQRK [I114G] | increasing interaction |
